Measurements published in the Immune Epitope Database (IEDB).

What was measured:
[1] = biological target: HLA-B*18:01; assay: IEDB peptide-MHC binding, purified MHC/competitive/radioactivity; filed as Kd, often an IC50 or EC50 that approximates it; ≥ and ≤ were set here for values at or beyond the usual limits of such assays
[2] = biological target: HLA-B*40:01; assay: as above
[3] = biological target: HLA-B*40:02; assay: as above
[4] = biological target: HLA-B*44:02; assay: as above
[5] = biological target: HLA-B*44:03; assay: as above
[6] = biological target: HLA-B*45:01; assay: as above
[7] = biological target: HLA-A*01:01; assay: IEDB peptide-MHC binding, purified MHC/direct/fluorescence; filed as Kd, often an IC50 or EC50 that approximates it; ≥ and ≤ were set here for values at or beyond the usual limits of such assays
[8] = biological target: HLA-A*02:01; assay: as above; conditions: source organism: Yellow fever virus 17D
[9] = biological target: HLA-A*03:01; assay: as above
[10] = biological target: HLA-A*11:01; assay: as above
[11] = biological target: HLA-A*29:02; assay: as above
[12] = biological target: HLA-A*31:01; assay: as above
[13] = biological target: HLA-A*69:01; assay: as above; conditions: source organism: Yellow fever virus 17D
[14] = biological target: HLA-B*15:01; assay: as above
[15] = biological target: HLA-B*18:01; assay: as above
[16] = biological target: HLA-B*40:01; assay: as above
[17] = biological target: HLA-B*44:02; assay: as above
[18] = biological target: HLA-B*46:01; assay: as above
[19] = biological target: HLA-B*48:01; assay: as above
[20] = biological target: HLA-B*57:01; assay: as above
[21] = biological target: HLA-B*58:01; assay: as above
[22] = biological target: HLA-B*08:01; assay: as above; conditions: source organism: Mycobacterium tuberculosis variant bovis BCG str. Pasteur 1173P2
[23] = biological target: HLA-B*27:05; assay: as above; conditions: source organism: Mycobacterium tuberculosis variant bovis BCG str. Pasteur 1173P2
[24] = source organism: SARS coronavirus Tor2
[25] = source organism: Yellow fever virus 17D
[26] = source organism: Mammarenavirus lassaense
[27] = source organism: Mammarenavirus choriomeningitidis
[28] = source organism: Mammarenavirus juninense
[29] = source organism: Mammarenavirus brazilense
[30] = source organism: Mammarenavirus machupoense
[31] = source organism: Mycobacterium tuberculosis variant bovis BCG str. Pasteur 1173P2

Q: Which Kd [1, 24] does the source give for SDRVVFVLWA here?
A: The Kd was ≥ 26.4 µM.

Q: What about the Kd [2, 24] of the same sequence?
A: Its Kd is 14.7 µM.

Q: What about the Kd [3, 24] of the same sequence?
A: The Kd was 16.7 µM.

Q: What about the Kd [4, 24] of the same sequence?
A: Its Kd is 0.654 µM.

Q: And the Kd [5, 24]?
A: The Kd was 0.736 µM.

Q: And the Kd [6, 24]?
A: The Kd was 1.95 µM.

Q: Which Kd [7, 25] does the source give for CRTAFKPVL here?
A: The Kd was ≥ 20 µM.

Q: And the Kd [8]?
A: The Kd was ≥ 20 µM.

Q: And the Kd [9, 25]?
A: Its Kd is ≥ 20 µM.

Q: What about the Kd [10, 25] of the same sequence?
A: The Kd was ≥ 20 µM.

Q: What about the Kd [11, 25] of the same sequence?
A: The Kd was ≥ 20 µM.

Q: And the Kd [12, 25]?
A: Its Kd is ≥ 20 µM.

Q: What about the Kd [13] of the same sequence?
A: The Kd was ≥ 20 µM.

Q: What about the Kd [14, 25] of the same sequence?
A: Its Kd is ≥ 20 µM.

Q: And the Kd [15, 25]?
A: The Kd was ≥ 20 µM.

Q: And the Kd [16, 25]?
A: The Kd was ≥ 20 µM.

Q: What about the Kd [17, 25] of the same sequence?
A: Its Kd is ≥ 20 µM.

Q: What about the Kd [18, 25] of the same sequence?
A: Its Kd is ≥ 20 µM.

Q: And the Kd [19, 25]?
A: Its Kd is ≥ 20 µM.

Q: And the Kd [20, 25]?
A: The Kd was ≥ 20 µM.

Q: And the Kd [21, 25]?
A: The Kd was ≥ 20 µM.

Q: How did the Kd [1, 26] turn out when KDPLITSGC was run?
A: Its Kd is ≥ 77.5 µM.

Q: And the Kd [2, 26]?
A: The Kd was 17.3 µM.

Q: And the Kd [3, 26]?
A: Its Kd is 4.5 µM.

Q: What about the Kd [4, 26] of the same sequence?
A: Its Kd is ≥ 77.9 µM.

Q: And the Kd [5, 26]?
A: Its Kd is ≥ 78.1 µM.

Q: And the Kd [6, 26]?
A: The Kd was ≥ 77.1 µM.

Q: MDLLLFSTS was tested. Which Kd [1, 27] did it give?
A: The Kd was 4.09 µM.

Q: What about the Kd [2, 27] of the same sequence?
A: Its Kd is 7.05 µM.

Q: And the Kd [3, 27]?
A: Its Kd is 0.265 µM.

Q: And the Kd [4, 27]?
A: The Kd was 6.84 µM.

Q: What about the Kd [5, 27] of the same sequence?
A: Its Kd is 2.68 µM.

Q: And the Kd [6, 27]?
A: Its Kd is 1.06 µM.

Q: DELGNILSVY was tested. Which Kd [1, 28] did it give?
A: The Kd was 0.00898 µM.

Q: What about the Kd [2, 28] of the same sequence?
A: The Kd was ≥ 69.5 µM.

Q: And the Kd [3, 28]?
A: Its Kd is 14.1 µM.

Q: What about the Kd [4, 28] of the same sequence?
A: Its Kd is 7.44 µM.

Q: What about the Kd [5, 28] of the same sequence?
A: The Kd was 1.21 µM.

Q: And the Kd [6, 28]?
A: The Kd was ≥ 70 µM.

Q: With LEGSVRVVT as the sequence, how does the Kd [1, 24] read?
A: Its Kd is 16.9 µM.

Q: What about the Kd [2, 24] of the same sequence?
A: Its Kd is 0.795 µM.

Q: And the Kd [3, 24]?
A: The Kd was 0.0699 µM.

Q: What about the Kd [4, 24] of the same sequence?
A: Its Kd is 0.951 µM.

Q: What about the Kd [5, 24] of the same sequence?
A: The Kd was 0.986 µM.

Q: What about the Kd [6, 24] of the same sequence?
A: Its Kd is 0.0591 µM.

Q: With FEKAKIEVL as the sequence, how does the Kd ([19]; source organism: Campylobacter jejuni subsp. jejuni 81-176) read?
A: Its Kd is ≥ 20 µM.

Q: Which Kd [1, 29] does the source give for EDQGNPIVL here?
A: Its Kd is ≥ 52.1 µM.

Q: What about the Kd [2, 29] of the same sequence?
A: Its Kd is 4.86 µM.

Q: And the Kd [3, 29]?
A: The Kd was ≥ 24.2 µM.

Q: And the Kd [4, 29]?
A: Its Kd is ≥ 36.6 µM.

Q: What about the Kd [5, 29] of the same sequence?
A: Its Kd is ≥ 78.1 µM.

Q: And the Kd [6, 29]?
A: The Kd was 14.9 µM.

Q: For NEYRQYLDA, which Kd [1, 24] is on record?
A: Its Kd is 2.38 µM.

Q: What about the Kd [2, 24] of the same sequence?
A: Its Kd is 1.76 µM.

Q: What about the Kd [3, 24] of the same sequence?
A: The Kd was 0.944 µM.

Q: What about the Kd [4, 24] of the same sequence?
A: The Kd was 12.4 µM.

Q: And the Kd [5, 24]?
A: Its Kd is 10.9 µM.

Q: And the Kd [6, 24]?
A: The Kd was 0.0988 µM.

Q: For SDNGILCPT, which Kd [1, 30] is on record?
A: The Kd was ≥ 77.5 µM.

Q: What about the Kd [2, 30] of the same sequence?
A: Its Kd is ≥ 68.2 µM.

Q: And the Kd [3, 30]?
A: Its Kd is 1.33 µM.

Q: What about the Kd [4, 30] of the same sequence?
A: The Kd was ≥ 27.8 µM.

Q: What about the Kd [5, 30] of the same sequence?
A: The Kd was ≥ 78.1 µM.

Q: And the Kd [6, 30]?
A: The Kd was ≥ 77.7 µM.

Q: Which Kd [1, 30] does the source give for RECYVQRFYL here?
A: Its Kd is 0.518 µM.

Q: And the Kd [2, 30]?
A: Its Kd is 9.01 µM.

Q: What about the Kd [3, 30] of the same sequence?
A: Its Kd is 0.0053 µM.

Q: What about the Kd [4, 30] of the same sequence?
A: Its Kd is 1.64 µM.

Q: And the Kd [5, 30]?
A: Its Kd is 1.1 µM.

Q: And the Kd [6, 30]?
A: Its Kd is 1.56 µM.

Q: With HPTSRRELL as the sequence, how does the Kd [7, 31] read?
A: Its Kd is ≥ 20 µM.

Q: And the Kd [9, 31]?
A: Its Kd is ≥ 20 µM.

Q: What about the Kd [10, 31] of the same sequence?
A: The Kd was ≥ 20 µM.

Q: And the Kd [11, 31]?
A: The Kd was ≥ 20 µM.

Q: And the Kd [12, 31]?
A: Its Kd is ≥ 20 µM.

Q: What about the Kd [22] of the same sequence?
A: Its Kd is 8.77 µM.

Q: And the Kd [14, 31]?
A: The Kd was ≥ 20 µM.

Q: And the Kd [15, 31]?
A: Its Kd is ≥ 20 µM.

Q: And the Kd [23]?
A: Its Kd is ≥ 20 µM.

Q: What about the Kd [16, 31] of the same sequence?
A: The Kd was ≥ 20 µM.

Q: What about the Kd [17, 31] of the same sequence?
A: The Kd was ≥ 20 µM.

Q: And the Kd [18, 31]?
A: The Kd was ≥ 20 µM.

Q: What about the Kd [19, 31] of the same sequence?
A: The Kd was ≥ 20 µM.

Q: What about the Kd [20, 31] of the same sequence?
A: The Kd was ≥ 20 µM.

Q: What about the Kd [21, 31] of the same sequence?
A: The Kd was ≥ 20 µM.

Q: How did the Kd [1, 24] turn out when GEVLSLDKL was run?
A: Its Kd is ≥ 77.5 µM.

Q: What about the Kd [2, 24] of the same sequence?
A: Its Kd is 0.0109 µM.

Q: What about the Kd [3, 24] of the same sequence?
A: Its Kd is 0.0307 µM.

Q: And the Kd [4, 24]?
A: Its Kd is 7.88 µM.

Q: What about the Kd [5, 24] of the same sequence?
A: Its Kd is 2.33 µM.

Q: And the Kd [6, 24]?
A: Its Kd is 17.3 µM.
